Laboratory results: US20240352070

Target: T1, FRET substrate peptide KLRMKLPKP
T1 chain: KLRMKLPKP

B1: human cathepsin S wild-type, amino acids 17 to 331, C-terminal His-tag (CTSS-His) (protein)
chain: LPDSVDWREKGCVTEVKYQGSCGACWAFSAVGALEAQLKLKTGKLVSLSAQNLVDCSTEKYGNKGCNGGFMTTAFQYIIDNKGIDSDASYPYKAMDQKCQYDSKYRAATCSKYTELPYGREDVLKEAVANKGPVSVGVDARHPSFFLYRSGVYYEPSCTQNVNHGVLVVGYGDLNGKEYWLVKNSWGHNFGEEGYIRMARNKGNHCGIASFPSYPEI
cleavage in FRET assay: validating the identified peptide by showing in a FRET assay that it is cleaved by cathepsin S
